Experimental data published in PMC4447949, “Structures of the Ets Protein DNA-binding Domains of Transcription Factors Etv1, Etv4, Etv5, and Fev” (The Journal of Biological Chemistry, 2015).

Assays:
Conditions in all cases: protein: recombinant; tags: N-terminal His6 removed by TEV (leaves SM); blunt
Etv1 C416S = Etv1 C416S (human, UniProt P50549 326-429, C416S); test: EMSA; 0.1 nM probe; EMSA: 50 mM Tris-HCl pH 7.5, 50 mM NaCl, 2 mM MgCl2, 0.01% Tween 20, 5% glycerol, 1 h at room temperature; proteins reduced with 10 mM TCEP unless stated; 10% native PAGE
Etv1 C416S, sequence (P50549 326-429 C416S): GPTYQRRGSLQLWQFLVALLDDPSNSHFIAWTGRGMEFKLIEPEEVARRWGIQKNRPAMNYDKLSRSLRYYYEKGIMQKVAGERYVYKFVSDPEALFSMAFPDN

Etv4 Ets domain = Etv4 Ets domain (human, UniProt P43268 338-470); test: EMSA; 10 mM TCEP; probe 0.1 nM (Table 3) or 0.2 nM (Fig. 9); EMSA: 50 mM Tris-HCl pH 7.5, 50 mM NaCl, 2 mM MgCl2, 0.01% Tween 20, 5% glycerol, 1 h at room temperature; proteins reduced with 10 mM TCEP unless stated; 10% native PAGE
Etv4 Ets domain, sequence (P43268 338-470): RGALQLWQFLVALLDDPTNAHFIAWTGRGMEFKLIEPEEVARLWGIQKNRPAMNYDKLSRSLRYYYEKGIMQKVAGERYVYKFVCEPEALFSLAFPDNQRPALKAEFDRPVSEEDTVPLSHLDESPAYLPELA

Etv5 Ets domain = Etv5 Ets domain (human, UniProt P41161 365-462); test: as above
Etv5 Ets domain, sequence (P41161 365-462): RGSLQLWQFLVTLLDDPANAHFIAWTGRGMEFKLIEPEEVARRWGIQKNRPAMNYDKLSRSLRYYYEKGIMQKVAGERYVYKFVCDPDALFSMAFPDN

Etv1 Y395F = Etv1 Y395F (human, UniProt P50549 326-429, Y395F); test: EMSA; 2 nM probe; 10 mM TCEP; saturates at 60% of probe; EMSA: 50 mM Tris-HCl pH 7.5, 50 mM NaCl, 2 mM MgCl2, 0.01% Tween 20, 5% glycerol, 1 h at room temperature; proteins reduced with 10 mM TCEP unless stated; 10% native PAGE
Etv1 Y395F, sequence (P50549 326-429 Y395F): as the sequence (P50549 326-429 C416S) above, with Y70F, S91C counted along it

Etv1 K379A = Etv1 K379A (human, UniProt P50549 326-429, K379A); test: EMSA; 2 nM and 0.1 nM probe; EMSA: 50 mM Tris-HCl pH 7.5, 50 mM NaCl, 2 mM MgCl2, 0.01% Tween 20, 5% glycerol, 1 h at room temperature; proteins reduced with 10 mM TCEP unless stated; 10% native PAGE
Etv1 K379A, sequence (P50549 326-429 K379A): as the sequence (P50549 326-429 C416S) above, with K54A, S91C counted along it

Etv1 S334E = Etv1 S334E (human, UniProt P50549 326-429, S334E); test: EMSA; 2 nM probe; 10 mM TCEP; saturates at 35% of probe; EMSA: 50 mM Tris-HCl pH 7.5, 50 mM NaCl, 2 mM MgCl2, 0.01% Tween 20, 5% glycerol, 1 h at room temperature; proteins reduced with 10 mM TCEP unless stated; 10% native PAGE
Etv1 S334E, sequence (P50549 326-429 S334E): as the sequence (P50549 326-429 C416S) above, with S9E, S91C counted along it

B1: Etv1ALF/Etv1ALR EMSA probe (dsDNA)
DNA 1: ATCTCACCGGAAGTGTAGCA
DNA 2: TGCTACACTTCCGGTGAGAT
Kd (Etv1 C416S): 0.26 ± 0.06 nM | Kd (Etv4 Ets domain): 0.34 ± 0.066 nM | Kd (Etv5 Ets domain): 1.16 ± 0.11 nM | Kd (Etv1 Y395F): 0.23 ± 0.05 nM | binding result (Etv1 K379A): no binding | Kd (Etv1 S334E): 0.89 ± 0.32 nM
